This note sets out measurements from PMC7990499 (eLife, 2021).

The experiment has as its target T1, fluorescently tagged eIF2Bβδγε tetramer (eIF2Bβδγε-F) (human, UniProt P49770 2-351; Q9UI10 1-523; Q9NR50 1-452; Q13144 1-721).
T1 construct: eIF2Bβ (eIF2B subunit beta), human; eIF2Bδ (eIF2B subunit delta), human; eIF2Bγ (eIF2B subunit gamma), human; eIF2Bε (eIF2B subunit epsilon), human; also called eIF2Bβγδε-F; tagged tetramers; source: E. coli, co-expression of pMS029 and pJT074, purified as previously described (Tsai et al., 2018); not shown: mNeonGreen with (GS)5 linker, C-terminal, kept; mScarlet-i with (GS)5 linker, C-terminal, …
The experiment can be described thus: FRET or BRET; in vitro equilibrium FRET (E592/E516), 50 nM eIF2Bβδγε-F with a titration of eIF2Bα2, 1 hr, room temperature, 20 mM HEPES-KOH pH 7.5, 100 mM KCl, 5 mM MgCl2, 1 mM TCEP, 0.5% DMSO. As to conditions: both partners purified.

T1 sequence (P49770 2-351, stated change not applied, chain 1 of 4): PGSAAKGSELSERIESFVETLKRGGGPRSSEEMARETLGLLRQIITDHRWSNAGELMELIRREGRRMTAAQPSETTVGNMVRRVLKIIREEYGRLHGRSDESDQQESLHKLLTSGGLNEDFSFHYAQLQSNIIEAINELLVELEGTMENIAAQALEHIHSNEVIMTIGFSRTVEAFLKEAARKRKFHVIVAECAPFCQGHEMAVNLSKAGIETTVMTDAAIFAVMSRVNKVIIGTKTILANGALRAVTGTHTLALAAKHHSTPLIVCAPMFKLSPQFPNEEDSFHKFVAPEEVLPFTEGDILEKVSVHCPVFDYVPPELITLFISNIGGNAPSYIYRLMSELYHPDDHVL
T1 sequence (Q9UI10 whole entry, stated change not applied, chain 2 of 4): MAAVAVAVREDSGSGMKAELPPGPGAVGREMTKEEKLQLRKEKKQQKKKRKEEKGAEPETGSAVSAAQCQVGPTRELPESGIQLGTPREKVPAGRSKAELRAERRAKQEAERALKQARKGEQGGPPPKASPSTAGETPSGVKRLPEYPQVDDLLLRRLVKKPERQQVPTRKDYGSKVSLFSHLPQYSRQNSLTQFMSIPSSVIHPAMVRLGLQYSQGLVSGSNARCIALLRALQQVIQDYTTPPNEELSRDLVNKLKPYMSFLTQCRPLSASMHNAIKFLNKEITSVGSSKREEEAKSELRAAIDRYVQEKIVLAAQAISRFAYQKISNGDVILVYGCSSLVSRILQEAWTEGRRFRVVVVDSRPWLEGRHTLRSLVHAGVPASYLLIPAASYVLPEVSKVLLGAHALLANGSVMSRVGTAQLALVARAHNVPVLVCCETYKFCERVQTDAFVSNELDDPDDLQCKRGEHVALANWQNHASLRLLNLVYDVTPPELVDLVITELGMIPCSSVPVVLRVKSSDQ
T1 sequence (Q9NR50 whole entry, stated change not applied, chain 3 of 4): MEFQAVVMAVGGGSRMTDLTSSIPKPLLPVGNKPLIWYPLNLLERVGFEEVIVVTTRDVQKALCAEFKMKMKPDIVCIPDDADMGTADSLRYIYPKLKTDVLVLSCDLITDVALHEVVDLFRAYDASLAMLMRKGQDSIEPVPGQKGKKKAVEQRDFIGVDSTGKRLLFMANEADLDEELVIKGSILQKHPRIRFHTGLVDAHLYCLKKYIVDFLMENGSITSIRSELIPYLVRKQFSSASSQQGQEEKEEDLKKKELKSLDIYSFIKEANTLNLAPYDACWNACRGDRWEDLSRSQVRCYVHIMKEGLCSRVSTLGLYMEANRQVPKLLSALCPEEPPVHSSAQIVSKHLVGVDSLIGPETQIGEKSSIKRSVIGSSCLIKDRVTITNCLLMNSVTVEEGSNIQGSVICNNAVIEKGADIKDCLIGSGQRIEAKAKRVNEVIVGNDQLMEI
T1 sequence (Q13144 whole entry, stated change not applied, chain 4 of 4): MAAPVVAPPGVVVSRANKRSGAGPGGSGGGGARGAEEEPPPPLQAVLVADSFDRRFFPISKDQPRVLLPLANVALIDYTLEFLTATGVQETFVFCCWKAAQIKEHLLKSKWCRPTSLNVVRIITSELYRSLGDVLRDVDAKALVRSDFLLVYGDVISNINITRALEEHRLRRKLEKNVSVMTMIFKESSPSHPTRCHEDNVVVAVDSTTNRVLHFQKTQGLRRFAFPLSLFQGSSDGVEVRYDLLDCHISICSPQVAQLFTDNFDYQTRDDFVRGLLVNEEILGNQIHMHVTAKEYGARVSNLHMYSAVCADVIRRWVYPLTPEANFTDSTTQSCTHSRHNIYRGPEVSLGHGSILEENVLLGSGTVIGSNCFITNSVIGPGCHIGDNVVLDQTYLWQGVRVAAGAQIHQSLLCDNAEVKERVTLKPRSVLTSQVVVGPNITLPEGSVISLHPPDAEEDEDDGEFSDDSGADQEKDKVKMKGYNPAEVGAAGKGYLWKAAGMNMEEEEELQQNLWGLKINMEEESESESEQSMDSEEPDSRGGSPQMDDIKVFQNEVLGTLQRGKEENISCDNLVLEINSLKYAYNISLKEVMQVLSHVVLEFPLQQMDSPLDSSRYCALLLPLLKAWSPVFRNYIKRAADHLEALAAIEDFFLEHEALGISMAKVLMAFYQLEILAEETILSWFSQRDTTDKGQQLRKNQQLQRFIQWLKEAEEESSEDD

B1: eIF2Bα homodimer (eIF2Bα2) (natural protein, human)
chain: MDDKELIEYFKSQMKEDPDMASAVAAIRTLLEFLKRDKGETIQGLRANLTSAIETLCGVDSSVAVSSGGELFLRFISLASLEYSDYSKCKKIMIERGELFLRRISLSRNKIADLCHTFIKDGATILTHAYSRVVLRVLEAAVAAKKRFSVYVTESQPDLSGKKMAKALCHLNVPVTVVLDAAVGYIMEKADLVIVGAEGVVENGGIINKIGTNQMAVCAKAQNKPFYVVAESFKFVRLFPLNQQDVPDKFKYKADTLKVAQTGQDLKEEHPWVDYTAPSLITLLFTDLGVLTPSAVSDELIKLYL
notes: eIF2Bα (eIF2B subunit alpha), human; also called eIFBα2; eIF2Bα homodimers; source: E. coli, expressed separately (pJT075 or pMS027), purified as previously described (Tsai et al., 2018)
Turning to B1, a half-maximal response (EC50) required 20 nM.
